This passage reports binding result and Kd results from patent US20220396792, “METHOD FOR PRODUCING NUCLEIC ACID MOLECULE, BIOMATERIAL, AND METHOD FOR PRODUCING BIOMATERIAL” (NEC Solution Innovators, Ltd., published 2022).

Series [1] addresses VEGF receptor (KDR/VEGFR2) (UniProt P35968 P35968:20-764). In words: SPR; 5 nM receptor alone, 25 C; receptor binds aptamer-bound VEGF165. Conditions: tags: R&D Systems 357-KD-050/CF; chain copies: 2. The protocol: The aptamers 1 to 5 were used as aptamers, and the VEGF sample and a VEGF receptor sample were used as samples. The VEGF receptor sample was prepared in the same manner as the VEGF sample, except that a VEGF receptor (R&D systems, Cat. No: 357-KD-050/CF) was used instead of the VEGF.
The analysis of binding properties by SPR was carried out in the following manner. First, biotinylated poly(dT) was bound to the sensor chip and each of the poly(dA)-added aptamers was then bound to the chip in the same manner as in Example 1. Subsequently, the 5 nmol/L VEGF sample was injected using an SB1T buffer at a flow rate of 50 μL/min for 240 seconds (first injection), followed by washing performed by flowing the SB1T buffer under the same conditions. Thereafter, the 5 nmol/L VEGF receptor sample was injected using an SB1T buffer at a flow rate of 50 μL/min for 240 seconds (second injection), followed by washing performed by flowing the SB1T buffer under the same conditions. With the time at which the first injection was started being 0 seconds, the signal intensity after the sample injection was measured. The SPR was carried out at 25° C. Also, analysis of binding properties by SPR was carried out in the same manner, except that the first and second injections were performed using the combinations shown in Table 1 below instead of the combination of the VEGF sample and the VEGF receptor sample.
FIGS. 8A to 8E are graphs respectively showing the binding properties of the aptamers 1 to 5 to the samples. […] The horizontal axis indicates the time (sec) elapsed after the start of the first injection, and the vertical axis indicates the signal intensity (RU).

For series [2], the target named is T1, VEGF165 (UniProt P15692-4 P15692-4:27-191). In words: SPR; 37 C, no Ca, 1 nM VEGF165. Conditions: tags: PeproTech 100-20; chain copies: 2.
T1 sequence (P15692 other isoform, or with tags, fused parts or gaps): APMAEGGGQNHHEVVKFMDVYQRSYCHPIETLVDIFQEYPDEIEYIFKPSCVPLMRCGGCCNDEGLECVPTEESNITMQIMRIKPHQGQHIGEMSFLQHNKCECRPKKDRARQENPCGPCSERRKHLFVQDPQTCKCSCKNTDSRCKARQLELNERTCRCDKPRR
In series [3] the target is BSA (bovine serum albumin) (Bos taurus, UniProt P02769 P02769:25-607). In words: SPR; signal 0 or less, 5 nM, 25 C. Conditions: tags: Sigma A7906. The protocol:
(§1) The analysis of the binding properties was carried out using a ProteOn XPR36 (BioRad) in accordance with its instructions for use.
(§2) First, as a sensor chip designed specifically for the ProteOn, a streptavidin-immobilized chip (trade name: ProteOn NLC Sensor Chip, BioRad) was set in the ProteOn XPR36. 5 μmol/L biotinylated poly(dT) was injected to a flow cell of the sensor chip using ultrapure water (DDW), and the binding was allowed to proceed until the signal intensity (RU: Resonance Unit) was saturated. The biotinylated poly(dT) was prepared by biotinylating the 5′ end of 20-mer deoxythymidine. Then, each of the poly(dA)-added aptamers (200 nmol/L) was injected to the flow cell of the chip using an SB1T buffer at a flow rate of 25 μL/min for 80 seconds, and the binding was allowed to proceed until the signal intensity was saturated. Subsequently, each of the samples (5 nmol/L) was injected using an SB1T buffer at a flow rate of 50 μL/min for 300 seconds, followed by washing performed by flowing the SB1T buffer under the same conditions. With the time at which the injection was started being 0 seconds, the signal intensity after the sample injection was measured. The SPR was carried out at 25° C.
(§3) The horizontal axis indicates the time (sec) elapsed after the start of the sample injection, and the vertical axis indicates the signal intensity (RU).

In a further series the target is VEGF121 (UniProt P15692-9 P15692-9:27-147). The experiment in a line: SPR; signal 0 or less, 5 nM, 25 C. Conditions: tags: PeproTech 100-20A; chain copies: 2. The protocol: as §1, §2, §3
Chain of VEGF121 (P15692 other isoform, or with tags, fused parts or gaps): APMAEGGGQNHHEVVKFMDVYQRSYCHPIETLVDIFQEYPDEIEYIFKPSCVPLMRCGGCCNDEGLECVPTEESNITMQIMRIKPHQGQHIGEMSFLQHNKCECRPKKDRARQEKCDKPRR
The target of series [4] is T1, VEGF165. In words: SPR; 25 C, SB1T pH 7.4, 1 mM MgCl2, 0.01% Tween 20. Conditions: tags: PeproTech 100-20; chain copies: 2. As to the method:
as §2
The pH of the SB1T buffer was 7.4.

Some results are limits rather than exact numbers.

Chain of VEGF receptor (KDR/VEGFR2) (P35968 20-764, one chain of several): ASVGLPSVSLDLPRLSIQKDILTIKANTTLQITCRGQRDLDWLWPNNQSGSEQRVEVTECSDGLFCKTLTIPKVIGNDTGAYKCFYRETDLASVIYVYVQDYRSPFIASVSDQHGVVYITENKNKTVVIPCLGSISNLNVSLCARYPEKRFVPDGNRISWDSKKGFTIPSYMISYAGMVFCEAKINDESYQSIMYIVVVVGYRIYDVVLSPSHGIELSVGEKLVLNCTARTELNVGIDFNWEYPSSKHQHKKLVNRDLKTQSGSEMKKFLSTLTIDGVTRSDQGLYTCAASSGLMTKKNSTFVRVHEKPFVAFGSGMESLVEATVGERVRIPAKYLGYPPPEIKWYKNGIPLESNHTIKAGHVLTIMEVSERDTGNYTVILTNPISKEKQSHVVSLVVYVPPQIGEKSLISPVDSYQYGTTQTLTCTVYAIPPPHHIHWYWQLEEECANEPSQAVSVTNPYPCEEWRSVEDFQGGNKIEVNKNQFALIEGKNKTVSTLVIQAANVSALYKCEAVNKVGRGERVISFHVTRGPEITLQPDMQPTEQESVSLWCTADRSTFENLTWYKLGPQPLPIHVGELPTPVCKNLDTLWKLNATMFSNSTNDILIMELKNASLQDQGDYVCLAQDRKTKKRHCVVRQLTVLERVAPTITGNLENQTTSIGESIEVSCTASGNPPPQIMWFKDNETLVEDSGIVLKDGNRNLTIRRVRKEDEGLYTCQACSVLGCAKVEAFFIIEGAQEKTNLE
Chain of BSA (bovine serum albumin) (P02769 25-607, one chain of several): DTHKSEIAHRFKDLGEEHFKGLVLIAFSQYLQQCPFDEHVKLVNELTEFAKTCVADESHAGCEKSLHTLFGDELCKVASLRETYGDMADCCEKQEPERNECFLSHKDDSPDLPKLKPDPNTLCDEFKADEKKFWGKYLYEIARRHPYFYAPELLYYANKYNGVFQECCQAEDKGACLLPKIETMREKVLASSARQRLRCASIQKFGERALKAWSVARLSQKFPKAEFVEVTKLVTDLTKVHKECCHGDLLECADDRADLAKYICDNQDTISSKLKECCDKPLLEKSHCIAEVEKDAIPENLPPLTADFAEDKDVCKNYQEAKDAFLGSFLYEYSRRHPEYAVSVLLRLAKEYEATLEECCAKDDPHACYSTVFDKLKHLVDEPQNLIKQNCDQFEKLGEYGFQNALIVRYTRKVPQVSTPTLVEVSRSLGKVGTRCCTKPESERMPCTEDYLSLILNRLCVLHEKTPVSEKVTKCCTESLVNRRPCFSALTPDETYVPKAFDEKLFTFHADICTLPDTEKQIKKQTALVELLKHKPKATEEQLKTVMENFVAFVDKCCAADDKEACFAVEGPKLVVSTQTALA

B1: Aptamer 2 VEGF746CaP_5s31 with 3' poly(dA)20 (ssDNA)
DNA: CCTTAGTTTAAAGTCACGTCTTAGTTTAAGGAAAAAAAAAAAAAAAAAAAA
With B1, the binding result in series [1] was “no binding”; with VEGF165 [2] it was “binds”; in series [3], “no binding”; in the series with VEGF121, “no binding”.

B2: Aptamer 1 VEGF746CaP_R8m1 with 3' poly(dA)20 (ssDNA)
DNA: GGATTGCCCGATTCACCGTAAACAGTTCTGGTTCCTTAGTTTAAAGTCACGTCTTAGTTTAAGGCATTCTGGAGCGGCATAACAAAAAAAAAAAAAAAAAAAA
With B2, the binding result in series [1] is given as “no binding”; with VEGF165 [2], “binds”; in series [3], “no binding”; with VEGF121, “no binding”.

B3: Aptamer 5 VEGF746CaP_R8m49 with 3' poly(dA)20 (ssDNA)
DNA: GGATTGCCCGATTCACCGTAAACGTTCTTACATTAGTTTAAAGTCACGTCTTAGTTTAATTAAGCATTCTGGAGCGGCATAACAAAAAAAAAAAAAAAAAAAA
As for B3, the binding result in series [1] was “no binding”; with VEGF165 [2], “binds”; in series [3] it was “no binding”; with VEGF121, “no binding”.

As for CCTTAGTTTAAAGTCACGTCTTAGTTTAAGAAAAAAAAAAAAAAAAAAAA (ssDNA) [Aptamer 7 VEGF_L30_2 with 3' poly(dA)20], in the series with VEGF165 [4], the dissociation constant Kd was under 0.001 nM.

Molecule TAGTTTAAAGTCACGTCTTAGTTTAAAAAAAAAAAAAAAAAAAAA (ssDNA) [Aptamer 14 VEGF_L25_1 with 3' poly(dA)20] displayed a dissociation constant (Kd) with VEGF165 [4] of 800 nM.

In the series with VEGF165 [4], TTAGTTTAAAGTCACGTCTTAGTTTAAAAAAAAAAAAAAAAAAAAAA (ssDNA) [Aptamer 11 VEGF_L27_1 with 3' poly(dA)20] had a Kd of 0.0276 nM.

Take CTTAGTTTAAAGTCACGTCTTAGTTTAAAAAAAAAAAAAAAAAAAAAA (ssDNA) [Aptamer 10 VEGF_L28_2 with 3' poly(dA)20]: the Kd in the series with VEGF165 [4] is 4170 nM.

As to CTTAGTTTAAAGTCACGTCTTAGTTTAAGGAAAAAAAAAAAAAAAAAAAA (ssDNA) [Aptamer 6 VEGF_L30_1 with 3' poly(dA)20], in the series with VEGF165 [4], the Kd is under 0.001 nM.

B4: Aptamer 4 VEGF746CaP_5s62 with 3' poly(dA)20 (ssDNA)
DNA: TTCACCGTAAACAGTTCTGGTTCCTTAGTTTAAAGTCACGTCTTAGTTTAAGGCATTCTGGAAAAAAAAAAAAAAAAAAAAA
For the molecule B4, the binding result in series [1] is on record as “no binding”; with VEGF165 [2], “binds”; in series [3] it was “no binding”; with VEGF121 it was “no binding”.

The molecule CTTAGTTTAAAGTCACGTCTTAGTTTAAGAAAAAAAAAAAAAAAAAAAA (ssDNA) [Aptamer 8 VEGF_L29_1 with 3' poly(dA)20] registered a Kd in the series with VEGF165 [4] of 0.0993 nM.

Molecule TTAGTTTAAAGTCACGTCTTAGTTTAAGAAAAAAAAAAAAAAAAAAAA (ssDNA) [Aptamer 9 VEGF_L28_1 with 3' poly(dA)20] came in with a dissociation constant Kd with VEGF165 [4] of 0.0149 nM.

With TAGTTTAAAGTCACGTCTTAGTTTAAAAAAAAAAAAAAAAAAAAAA (ssDNA) [Aptamer 12 VEGF_L26_1 with 3' poly(dA)20], the Kd in the series with VEGF165 [4] worked out at 0.0545 nM.

For TTAGTTTAAAGTCACGTCTTAGTTTAAAAAAAAAAAAAAAAAAAAA (ssDNA) [Aptamer 13 VEGF_L26_2 with 3' poly(dA)20], the dissociation constant (Kd) with VEGF165 [4] was found to be 3.49 nM.

Molecule AGTTTAAAGTCACGTCTTAGTTTAAAAAAAAAAAAAAAAAAAA (ssDNA) [Aptamer 15 VEGF_L23_1 with 3' poly(dA)20] came in with an equilibrium dissociation constant (Kd) in the series with VEGF165 [4] of 92.7 nM.

B5: Aptamer 3 VEGF746CaP_5s49 with 3' poly(dA)20 (ssDNA)
DNA: CCGTAAACAGTTCTGGTTCCTTAGTTTAAAGTCACGTCTTAGTTTAAGGAAAAAAAAAAAAAAAAAAAA
In the case of B5, the binding result in series [1] is recorded as “no binding”; in the series with VEGF165 [2] it was “binds”; in series [3], “no binding”; with VEGF121, “no binding”.
